Measured values from publication PMC7505474 (2020).

Target: Recombinant TLR4 protein (R&D Systems 478-TR-050) (UniProt O00206 24-631)
Experiment: SPR

Sequence of Recombinant TLR4 protein (R&D Systems 478-TR-050) (O00206 24-631): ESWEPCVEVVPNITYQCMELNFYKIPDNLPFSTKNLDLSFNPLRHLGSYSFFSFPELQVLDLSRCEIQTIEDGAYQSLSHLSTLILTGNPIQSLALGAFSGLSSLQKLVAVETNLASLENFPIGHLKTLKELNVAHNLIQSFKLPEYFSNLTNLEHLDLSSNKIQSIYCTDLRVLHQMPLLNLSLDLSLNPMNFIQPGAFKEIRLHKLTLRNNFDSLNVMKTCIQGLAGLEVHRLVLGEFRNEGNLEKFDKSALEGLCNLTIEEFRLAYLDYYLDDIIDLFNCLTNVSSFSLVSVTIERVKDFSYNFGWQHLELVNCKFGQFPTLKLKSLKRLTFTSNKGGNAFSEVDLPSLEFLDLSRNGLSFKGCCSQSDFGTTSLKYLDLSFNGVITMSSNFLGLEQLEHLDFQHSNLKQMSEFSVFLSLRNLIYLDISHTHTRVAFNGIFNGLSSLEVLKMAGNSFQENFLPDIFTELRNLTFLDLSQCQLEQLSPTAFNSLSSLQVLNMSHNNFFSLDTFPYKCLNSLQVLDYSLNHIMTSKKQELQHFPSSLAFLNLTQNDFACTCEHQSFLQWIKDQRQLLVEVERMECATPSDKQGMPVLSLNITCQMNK

B1: human recombinant IFI16 protein (natural protein)
chain: MGKKYKNIVLLKGLEVINDYHFRMVKSLLSNDLKLNLKMREEYDKIQIADLMEEKFRGDAGLGKLIKIFEDIPTLEDLAETLKKEKLKVKGPALSRKRKKEVDATSPAPSTSSTVKTEGAEATPGAQKRKKSTKEKAGPKGSKVSEEQTQPPSPAGAGMSTAMGRSPSPKTSLSAPPNSSSTENPKTVAKCQVTPRRNVLQKRPVIVKVLSTTKPFEYETPEMEKKIMFHATVATQTQFFHVKVLNTSLKEKFNGKKIIIISDYLEYDSLLEVNEESTVSEAGPNQTFEVPNKIINRAKETLKIDILHKQASGNIVYGVFMLHKKTVNQKTTIYEIQDDRGKMDVVGTGQCHNIPCEEGDKLQLFCFRLRKKNQMSKLISEMHSFIQIKKKTNPRNNDPKSMKLPQEQRQLPYPSEASTTFPESHLRTPQMPPTTPSSSFFTKKSEDTISKMNDFMRMQILKEGSHFPGPFMTSIGPAESHPHTPQMPPSTPSSSFLTTLKPRLKTEPEEVSIEDSAQSDLKEVMVLNATESFVYEPKEQKKMFHATVATENEVFRVKVFNIDLKEKFTPKKIIAIANYVCRNGFLEVYPFTLVADVNADRNMEIPKGLIRSASVTPKINQLCSQTKGSFVNGVFEVHKKNVRGEFTYYEIQDNTGKMEVVVHGRLTTINCEEGDKLKLTCFELAPKSGNTGELRSVIHSHIKVIKTRKNKKDILNPDSSMETSPDFFF
- koff: 0.00576 s⁻¹
